Measurements as given in FireProtDB (doi:10.1021/bi991296s).
Where “and” joins values, the source holds several entries; their conditions need not be identical. Equal values may be shown once.

Conditions: Escherichia coli (strain K12), pH 7.8, 25 °C, Urea, transition: 4, whole UniProt chain shown
[1] = SAXS, Potassium phosphate 10 mM
[2] = SEC, Potassium phosphate 100 mM

B1: Tryptophan synthase alpha chain wild type, P0A877 (protein)
chain: MERYESLFAQLKERKEGAFVPFVTLGDPGIEQSLKIIDTLIEAGADALELGIPFSDPLADGPTIQNATLRAFAAGVTPAQCFEMLALIRQKHPTIPIGLLMYANLVFNKGIDEFYAQCEKVGVDSVLVADVPVEESAPFRQAALRHNVAPIFICPPNADDDLLRQIASYGRGYTYLLSRAGVTGAENRAALPLNHLVAKLKEYNAAPPLQGFGISAPDQVKAAIDAGAAGAISGSAIVKIIEQHINEPEKMLAALKVFVQPMKAATRS
With B1 the denaturant m value (CD, Potassium phosphate 10 mM) was 2.2 kcal/mol/M and 1.1 kcal/mol/M and 0.84 kcal/mol/M, the unfolding free energy (CD, Potassium phosphate 10 mM) was 6 kcal/mol and 4.5 kcal/mol and 4.9 kcal/mol and the denaturant m value [1] was 2 kcal/mol/M and 0.9 kcal/mol/M. The unfolding free energy [1] was 5.3 kcal/mol and 3.1 kcal/mol, the denaturant m value [2] was 2 kcal/mol/M and 1.2 kcal/mol/M and the unfolding free energy [2] was 5.7 kcal/mol and 4.9 kcal/mol.
